These are literature values, as cited in PMC6989705 (EJNMMI Radiopharmacy and Chemistry, 2020).

The conditions of the data set: endogenous ligand; ref Rai et al. [2015]; cited from earlier work. The method, then:
Somatostatin receptors (SSTRs) are validated biomarkers in the management of NETs. The short biological half-life of the endogenous ligand somatostatin (< 5 min) prevents pharmacological use of this peptide (Rai et al. [2015]). Therefore, synthetic somatostatin analogs that are more resistant to peptidases, such as octreotide, were developed. Using radiolabeled somatostatin analogs, the presence of SSTRs on tumor cells may be exploited for molecular imaging and targeted radionuclide therapy (TRNT) for the treatment of unresectable neuroendocrine tumors (Pauwels et al. [2018]; Deroose et al. [2 ...

Regarding somatostatin, the biological half-life is < 5 min.
